We go through 1 molecule from patent US20140271653A1.

Values joined by “and” are separate entries in the source; they are usually repeats but may differ in a detail not shown here. Equal entries are not always repeated.

Experiment [1] addresses RSV-F of RSV subtype A lab strains. Kind of experiment: cell-based or functional assay.
For experiment [2], the target named is RSV-F of RSV subtype B lab strains. Kind of experiment: cell-based or functional assay.

B1: H1H3592P3 (antibody, V domains shown)
VH: EVQLVESGGDLVQPGRSLRLSCVASGFTFDDYAMHWVRQAPGKGLEWVSGVSWSGSTVGYADSVKGRFTVSRDNAQKSLYLQMNSLRAEDTALYYCVKDAYKFNYYYYGLDVWGQGTTVTVSS
VL: EIVMTQSPATLSVSPGERATLSCRASQTILSNLAWYLQKPGQAPRLLIYGASTRATGLPARFSGSGSGTEFTLTISSLQSEDFAVYYCQQYNNWPLTFGGGTKVEIK
Take B1: the neutralization potency on HEp-2 cells, fold against control I in experiment [1] was 15 fold and 17 fold; in experiment [2] it was 2 fold and 5 fold.
